Test results published in US20110318339A1 (FABRUS, published 2011).
Numbering of substitutions follows the chain as printed. Names and notes keep the numbering of the source. One block for each binder: values may come before it.

What was measured:
[1] = target: T1, recombinant human DLL4 (Cat# 1506-D4/CF, R&D Systems) (human, UniProt Q9NR61 27-529); experiment: ELISA, hDLL4 coated 0.5 ng/ul, Fab 0.16 nM
T1 construct: Bought protein; also called hDLL4; h DLL4
Experimental: (§1) In this example, an ELISA binding assay was used to assess the dose-dependent binding of Fab antibodies to recombinant human DLL4 and recombinant mouse DLL4.
(§2) The plate was blocked by adding 1% BSA in Tris-buffered Saline Tween (TBST) and incubating for 1 hour at room temperature followed by washing 2 times with 150 μl TBST. A Fab antibody was serially diluted in 1% BSA in PBS. A 50 μl aliquot of each serial dilution was added, in triplicate, to each well and the plate was incubated for 1 hour at room temperature followed by washing 2 times with TBST. 50 μl of either goat anti-human kappa HRP conjugated secondary antibody (Cat # A7164-1 mL, Sigma-Aldrich) or goat anti-human lambda HRP conjugated secondary antibody (Cat # L1645-1 ml, Sigma-Aldrich), diluted 1:1000 in 1% BSA in PBS, was added to each well and the plate was incubated for 30 minutes at room temperature followed by washing 3 times with 200 μl TBST. Finally, 50 μl TMB one-component reagent (Cat # TMBW-1000-01, BioFax) was added and allowed to develop for 2 minutes at room temperature. The reaction was immediately halted by the addition of 50 μl 0.5M H₂SO₄ and the absorbance at 450 nm was measured using an ELISA plate reader.

[2] = target: T2, recombinant mouse DLL4 (Cat# 1389-D4-050/CF, R&D Systems) (mouse, UniProt Q9JI71 28-525); experiment: ELISA, mDLL4 coated 0.5 ng/ul, Fab 1.25 nM
T2 construct: Bought protein; also called mDLL4
T2 sequence (Q9JI71 28-525 limits assumed): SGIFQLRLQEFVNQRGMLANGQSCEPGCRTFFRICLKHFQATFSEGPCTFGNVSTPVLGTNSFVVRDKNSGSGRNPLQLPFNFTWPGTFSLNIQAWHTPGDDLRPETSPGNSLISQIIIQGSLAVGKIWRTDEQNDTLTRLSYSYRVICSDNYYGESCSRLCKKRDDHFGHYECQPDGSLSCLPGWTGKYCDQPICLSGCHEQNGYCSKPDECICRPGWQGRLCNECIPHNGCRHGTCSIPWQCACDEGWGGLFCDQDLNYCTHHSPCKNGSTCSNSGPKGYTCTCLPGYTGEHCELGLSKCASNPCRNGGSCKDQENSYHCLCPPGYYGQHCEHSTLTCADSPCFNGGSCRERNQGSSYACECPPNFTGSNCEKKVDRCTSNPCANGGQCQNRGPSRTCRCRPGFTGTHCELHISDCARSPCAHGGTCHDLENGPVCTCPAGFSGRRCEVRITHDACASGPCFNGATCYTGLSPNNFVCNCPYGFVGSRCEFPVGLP
Experimental: as §1, §2

[3] = target: T1, recombinant human DLL4 (Cat# …); experiment: ELISA, hDLL4 coated 0.5 ng/ul, Fab 5.00 nM
Experimental: as §1, §2

[4] = target: T1, recombinant human DLL4 (Cat# …); experiment: ELISA, hDLL4 coated 0.5 ng/ul, Fab 2.50 nM
Experimental: as §1, §2

[5] = target: T2, recombinant mouse DLL4 (Cat# …); experiment: ELISA, mDLL4 coated 0.5 ng/ul, Fab 10.00 nM
Experimental: as §2

[6] = target: T2, recombinant mouse DLL4 (Cat# …); experiment: ELISA, mDLL4 coated 0.5 ng/ul, Fab 5.00 nM
Experimental: as §1, §2

[7] = target: T1, recombinant human DLL4 (Cat# …); experiment: ELISA, hDLL4 coated 0.5 ng/ul, Fab 0.63 nM
Experimental: as §2

[8] = target: T2, recombinant mouse DLL4 (Cat# …); experiment: ELISA, mDLL4 coated 0.5 ng/ul, Fab 0.63 nM
Experimental: as §2

[9] = target: T1, recombinant human DLL4 (Cat# …); experiment: ELISA, hDLL4 coated 0.5 ng/ul, Fab 1.25 nM
Experimental: as §1, §2

[10] = target: T1, recombinant human DLL4 (Cat# …); experiment: ELISA, hDLL4 coated 0.5 ng/ul, Fab 0.08 nM
Experimental: as §2

[11] = target: T2, recombinant mouse DLL4 (Cat# …); experiment: ELISA, mDLL4 coated 0.5 ng/ul, Fab 0.31 nM
Experimental: as §2

[12] = target: T1, recombinant human DLL4 (Cat# …); experiment: ELISA, hDLL4 coated 0.5 ng/ul, Fab 0.31 nM
Experimental: as §1, §2

[13] = target: T1, recombinant human DLL4 (Cat# …); experiment: ELISA, hDLL4 coated 0.5 ng/ul, Fab 10.00 nM
Experimental: as §1, §2

[14] = target: T2, recombinant mouse DLL4 (Cat# …); experiment: ELISA, mDLL4 coated 0.5 ng/ul, Fab 2.50 nM
Experimental: as §1, §2

[15] = target: T2, recombinant mouse DLL4 (Cat# …); experiment: ELISA, mDLL4 coated 0.5 ng/ul, Fab 0.08 nM
Experimental: as §2

[16] = target: T2, recombinant mouse DLL4 (Cat# …); experiment: ELISA, mDLL4 coated 0.5 ng/ul, Fab 0.16 nM
Experimental: as §2

[17] = target: T3, full-length human DLL4 expressed on the surface of CHO cells (human, UniProt Q9NR61 26-685); experiment: flow cytometry competition, 250 nM biotinylated Notch-Fc as competitor, Fab 2 nM
T3 construct: also called CHO-DLL4; DLL4-expressing CHO cells
Experimental: (§3) Streptavidin-PE was used as a detection molecule.
(§4) Fab was 5-fold serially diluted in 2% BSA/PBS from a starting concentration of 50 nM. […] PE-labeled streptavidin (Cat# 21627, Pierce-Thermo Scientific) was then added to a final dilution of 1:5 followed by incubation for 10 minutes at room temperature. The cells were then washed twice in 2% BSA/PBS and analyzed by flow cytometry on a BD FACSAria.

[18] = target: T3, full-length human DLL4 expressed on the …; experiment: flow cytometry competition, 250 nM biotinylated Notch-Fc as competitor, Fab 50 nM
Experimental: as §3, §4

[19] = target: T3, full-length human DLL4 expressed on the …; experiment: flow cytometry competition, 250 nM biotinylated Notch-Fc as competitor, Fab 10 nM
Experimental: as §3, §4

ELISA absorbance at 450 nm [1]: 0.407 A450 | ELISA absorbance at 450 nm [2]: 0.317 A450 | ELISA absorbance at 450 nm [3]: 1.92 A450 | ELISA absorbance at 450 nm [4]: 1.83 A450 | ELISA absorbance at 450 nm [5]: 1.22 A450 | ELISA absorbance at 450 nm [6]: 0.833 A450 | ELISA absorbance at 450 nm [7]: 1.09 A450 | ELISA absorbance at 450 nm [8]: 0.206 A450 | ELISA absorbance at 450 nm [9]: 1.4 A450 | ELISA absorbance at 450 nm [10]: 0.189 A450 | ELISA absorbance at 450 nm [11]: 0.105 A450 | ELISA absorbance at 450 nm [12]: 0.683 A450 | ELISA absorbance at 450 nm [13]: 2.25 A450 | ELISA absorbance at 450 nm [14]: 0.583 A450 | ELISA absorbance at 450 nm [15]: 0.063 A450 | ELISA absorbance at 450 nm [16]: 0.081 A450
B1: Fab VH1-46_IGHD6-6*01_IGHJ1*01 S102A/S103P/S104F/H111F I51V/N52L/S54T/G56H (H:APFF VLTH) & L6_IGKJ1*01 S28N/S30D/S31H (L:NDH) (Fab, V domains shown)
VH: QVQLVQSGAEVKKPGASVKVSCKASGYTFTSYYMHWVRQAPGQGLEWMGIVLPTGHSTSYAQKFQGRVTMTRDTSTSTVYMELSSLRSEDTAVYYCAREEYAPFSAEYFQFWGQGTLVTVSS
VL: EIVLTQSPATLSLSPGERATLSCRASQNVDHYLAWYQQKPGQAPRLLIYDASNRATGIPARFSGSGSGTDFTLTISSLEPEDFAVYYCQQRSNWPPWTFGQGTKVEIKR
notes: Tested as Fab from E. coli (Plasmid A: CH1, His6, Flag; Plasmid C: CL kappa); also called H:APFF VLTH & L:NDH; APFF VLTH / NDH

ELISA absorbance at 450 nm [1]: 0.593 A450 | ELISA absorbance at 450 nm [2]: 0.604 A450 | signal of Notch-Fc bound to CHO-DLL4 (streptavidin-PE) [17]: 117 | ELISA absorbance at 450 nm [3]: 2.06 A450 | ELISA absorbance at 450 nm [4]: 1.96 A450 | ELISA absorbance at 450 nm [5]: 1.55 A450 | ELISA absorbance at 450 nm [6]: 1.28 A450 | ELISA absorbance at 450 nm [7]: 1.4 A450 | signal of Notch-Fc bound to CHO-DLL4 (streptavidin-PE) [18]: 30 | ELISA absorbance at 450 nm [8]: 0.404 A450 | ELISA absorbance at 450 nm [9]: 1.65 A450 | ELISA absorbance at 450 nm [10]: 0.259 A450 | ELISA absorbance at 450 nm [11]: 0.205 A450 | ELISA absorbance at 450 nm [12]: 0.85 A450 | ELISA absorbance at 450 nm [13]: 2.25 A450 | signal of Notch-Fc bound to CHO-DLL4 (streptavidin-PE) [19]: 30 | ELISA absorbance at 450 nm [14]: 0.983 A450 | ELISA absorbance at 450 nm [15]: 0.078 A450 | ELISA absorbance at 450 nm [16]: 0.142 A450
B2: Fab VH1-46_IGHD6-6*01_IGHJ1*01 S102A/S103P/S104F/H111F I51V/N52L/S54T/G56H (H:APFF VLTH) & L6_IGKJ1*01 S28N/S30D/S31H S52L/A55S (L:NDH LS) (Fab, V domains shown)
VH: B1 VH
VL: B1 VL with S52L, A55S
notes: Tested as Fab from E. coli (Plasmid A: CH1, His6, Flag; Plasmid C: CL kappa); also called H:APFF VLTH & L:NDH LS; APFF VLTH / NDH LS

ELISA absorbance at 450 nm [1]: 0.079 A450 | ELISA absorbance at 450 nm [2]: 0.054 A450 | ELISA absorbance at 450 nm [3]: 0.882 A450 | ELISA absorbance at 450 nm [4]: 0.535 A450 | ELISA absorbance at 450 nm [5]: 0.088 A450 | ELISA absorbance at 450 nm [6]: 0.07 A450 | ELISA absorbance at 450 nm [7]: 0.168 A450 | ELISA absorbance at 450 nm [8]: 0.052 A450 | ELISA absorbance at 450 nm [9]: 0.264 A450 | ELISA absorbance at 450 nm [10]: 0.071 A450 | ELISA absorbance at 450 nm [11]: 0.049 A450 | ELISA absorbance at 450 nm [12]: 0.103 A450 | ELISA absorbance at 450 nm [13]: 1.2 A450 | ELISA absorbance at 450 nm [14]: 0.061 A450 | ELISA absorbance at 450 nm [15]: 0.048 A450 | ELISA absorbance at 450 nm [16]: 0.048 A450
B3: Fab VH1-46_IGHD6-6*01_IGHJ1*01 S102A/S103P/S104F/H111F G56H (H:APFF G56H) & L6_IGKJ1*01 (Fab, V domains shown)
VH: B1 VH with V51I, L52N, T54S
VL: not shown
notes: Tested as Fab from E. coli: VH cloned into Plasmid A (CH1, His6 and Flag tags), kappa VL into Plasmid C (CL kappa); also called H:APFF G56H & L:wt
